Target: SpyCatcher‐mi3 fusion protein
Test: SDS-PAGE of the covalent conjugate

Substance: 2019‐nCoV RBD‐SpyTag (from UniProt P0DTC2 319-541) (domain or fragment)
- stoichiometry N (RBD monomers per particle): 30

Reference: publication PMC8459632
